Test results as given in PMC11091212 (2024).

T1: Microfibril-associated glycoprotein 4 (human, UniProt P55083 22-255, intermolecular disulphide bond between C34 of two monomers; N-glycosylated at N87 and N137 (cryo-EM density))
T1 chain: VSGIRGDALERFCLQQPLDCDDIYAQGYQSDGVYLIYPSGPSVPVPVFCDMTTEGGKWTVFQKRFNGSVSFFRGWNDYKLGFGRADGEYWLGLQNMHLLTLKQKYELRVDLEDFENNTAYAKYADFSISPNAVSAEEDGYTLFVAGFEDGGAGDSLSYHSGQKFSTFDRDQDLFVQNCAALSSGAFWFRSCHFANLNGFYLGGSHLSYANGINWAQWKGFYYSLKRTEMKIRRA

B1: fibulin-4 (natural protein)
chain: SASPQDSEEPDSYTECTDGYEWDPDSQHCRDVNECLTIPEACKGEMKCINHYGGYLCLPRSAAVINDLHGEGPPPPVPPAQHPNPCPPGYEPDDQDSCVDVDECAQALHDCRPSQDCHNLPGSYQCTCPDGYRKIGPECVDIDECRYRYCQHRCVNLPGSFRCQCEPGFQLGPNNRSCVDVNECDMGAPCEQRCFNSYGTFLCRCHQGYELHRDGFSCSDIDECSYSSYLCQYRCINEPGRFSCHCPQGYQLLATRLCQDIDECESGAHQCSEAQTCVNFHGGYRCVDTNRCVEPYIQVSENRCLCPASNPLCREQPSSIVHRYMTITSERSVPADVFQIQATSVYPGAYNAFQIRAGNSQGDFYIRQINNVSAMLVLARPVTGPREYVLDLEMVTMNSLMSYRASSVLRLTVFVGAYTF
B2: fibulin-5 (natural protein)
chain: QAQCTNGFDLDRQSGQCLDIDECRTIPEACRGDMMCVNQNGGYLCIPRTNPVYRGPYSNPYSTPYSGPYPAAAPPLSAPNYPTISRPLICRFGYQMDESNQCVDVDECATDSHQCNPTQICINTEGGYTCSCTDGYWLLEGQCLDIDECRYGYCQQLCANVPGSYSCTCNPGFTLNEDGRSCQDVNECATENPCVQTCVNTYGSFICRCDPGYELEEDGVHCSDMDECSFSEFLCQHECVNQPGTYFCSCPPGYILLDDNRSCQDINECEHRNHTCNLQQTCYNLQGGFKCIDPIRCEEPYLRISDNRCMCPAENPGCRDQPFTILYRDMDVVSGRSVPADIFQMQATTRYPGAYYIFQIKSGNEGREFYMRQTGPISATLVMTRPIKGPREIQLDLEMITVNTVINFRGSSVIRLRIYVSQYPF
B3: N-terminal half of LTBP4L (domain or fragment)
chain: ASPSPSPSQVVEVPGVPSRPASVAVCRCCPGQTSRRSRCIRAFCRVRSCQPKKCAGPQRCLNPVPAVPSPSPSVRKRQVSLNWQPLTLQEARALLKRRRPRGPGGRGLLRRRPPQRAPAGKAPVLCPLICHNGGVCVKPDRCLCPPDFAGKFCQLHSSGARPPAPAVPGLTRSVYTMPLANHRDDEHGVASMVSVHVEHPQEASVVVHQVERVSGPWEEADAEAVARAEAAARAEAAAPYTVLAQSAPREDGYSDASGFGYCFRELRGGECASPLPGLRTQEVCCRGAGLAWGVHDCQLCSERLGNSERVSAPDGPCPTGFERVNGSCEDVDECATGGRCQHGECANTRGGYTCVCPDGFLLDSSRSSCISQHVISEAKGPCFRVLRDGGCSLPILRNITKQICCCSRVGKAWGRGCQLCPPFGSEGFREICPAGPGYHYSASDLRYNTRPLGQEPPRVSLSQPRTLPATSRPSAGFLPTHRLEPRPEPRPDPRPGPELPLPSIPAWTGPEIPESGPSSGMCQRNPQVCGPGRCISRPSGYTCACDSGFRLSPQGTRCIDVDECRRVPPPCAPGRCENSPGSFRCVCGPGFRAGPRAAECLDVDECHRVPPPCDLGRCENTPGSFLCVCPAGYQAAPHGASCQDVDECTQSPGLCGRGACKNLPGSFRCVCPAGFRGSACEEDVDECAQEPPPCGPGRCDNTAGSFHCACPAGFRSRGPGAPCQ
B4: fibrillin-1 centre region fragment rF1M (domain or fragment)
chain: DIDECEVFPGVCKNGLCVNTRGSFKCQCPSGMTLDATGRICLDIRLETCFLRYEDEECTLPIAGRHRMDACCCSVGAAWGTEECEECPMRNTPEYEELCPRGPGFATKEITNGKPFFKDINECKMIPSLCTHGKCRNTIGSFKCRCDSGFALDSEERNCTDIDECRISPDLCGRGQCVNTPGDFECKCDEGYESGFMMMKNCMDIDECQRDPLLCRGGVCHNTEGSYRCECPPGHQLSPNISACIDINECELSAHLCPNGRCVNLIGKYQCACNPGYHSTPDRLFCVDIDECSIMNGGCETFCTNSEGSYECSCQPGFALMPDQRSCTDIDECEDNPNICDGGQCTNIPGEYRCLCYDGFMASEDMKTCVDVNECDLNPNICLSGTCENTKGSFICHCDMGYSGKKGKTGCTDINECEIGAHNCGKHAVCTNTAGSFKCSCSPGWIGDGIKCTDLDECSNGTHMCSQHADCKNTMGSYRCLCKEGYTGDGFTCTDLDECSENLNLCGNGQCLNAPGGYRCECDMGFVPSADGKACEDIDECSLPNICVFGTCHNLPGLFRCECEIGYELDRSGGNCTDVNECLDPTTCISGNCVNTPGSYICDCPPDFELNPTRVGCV
modifications: limits not printed (cited paper); approximate centre region, set at calcium-binding EGF domain boundaries from the domain before TB4 to the one before TB5; Ca2+ bound, HEK-type glycosylation and disulphides likely
B5: recombinant N-terminal half of fibrillin-1 (domain or fragment)
chain: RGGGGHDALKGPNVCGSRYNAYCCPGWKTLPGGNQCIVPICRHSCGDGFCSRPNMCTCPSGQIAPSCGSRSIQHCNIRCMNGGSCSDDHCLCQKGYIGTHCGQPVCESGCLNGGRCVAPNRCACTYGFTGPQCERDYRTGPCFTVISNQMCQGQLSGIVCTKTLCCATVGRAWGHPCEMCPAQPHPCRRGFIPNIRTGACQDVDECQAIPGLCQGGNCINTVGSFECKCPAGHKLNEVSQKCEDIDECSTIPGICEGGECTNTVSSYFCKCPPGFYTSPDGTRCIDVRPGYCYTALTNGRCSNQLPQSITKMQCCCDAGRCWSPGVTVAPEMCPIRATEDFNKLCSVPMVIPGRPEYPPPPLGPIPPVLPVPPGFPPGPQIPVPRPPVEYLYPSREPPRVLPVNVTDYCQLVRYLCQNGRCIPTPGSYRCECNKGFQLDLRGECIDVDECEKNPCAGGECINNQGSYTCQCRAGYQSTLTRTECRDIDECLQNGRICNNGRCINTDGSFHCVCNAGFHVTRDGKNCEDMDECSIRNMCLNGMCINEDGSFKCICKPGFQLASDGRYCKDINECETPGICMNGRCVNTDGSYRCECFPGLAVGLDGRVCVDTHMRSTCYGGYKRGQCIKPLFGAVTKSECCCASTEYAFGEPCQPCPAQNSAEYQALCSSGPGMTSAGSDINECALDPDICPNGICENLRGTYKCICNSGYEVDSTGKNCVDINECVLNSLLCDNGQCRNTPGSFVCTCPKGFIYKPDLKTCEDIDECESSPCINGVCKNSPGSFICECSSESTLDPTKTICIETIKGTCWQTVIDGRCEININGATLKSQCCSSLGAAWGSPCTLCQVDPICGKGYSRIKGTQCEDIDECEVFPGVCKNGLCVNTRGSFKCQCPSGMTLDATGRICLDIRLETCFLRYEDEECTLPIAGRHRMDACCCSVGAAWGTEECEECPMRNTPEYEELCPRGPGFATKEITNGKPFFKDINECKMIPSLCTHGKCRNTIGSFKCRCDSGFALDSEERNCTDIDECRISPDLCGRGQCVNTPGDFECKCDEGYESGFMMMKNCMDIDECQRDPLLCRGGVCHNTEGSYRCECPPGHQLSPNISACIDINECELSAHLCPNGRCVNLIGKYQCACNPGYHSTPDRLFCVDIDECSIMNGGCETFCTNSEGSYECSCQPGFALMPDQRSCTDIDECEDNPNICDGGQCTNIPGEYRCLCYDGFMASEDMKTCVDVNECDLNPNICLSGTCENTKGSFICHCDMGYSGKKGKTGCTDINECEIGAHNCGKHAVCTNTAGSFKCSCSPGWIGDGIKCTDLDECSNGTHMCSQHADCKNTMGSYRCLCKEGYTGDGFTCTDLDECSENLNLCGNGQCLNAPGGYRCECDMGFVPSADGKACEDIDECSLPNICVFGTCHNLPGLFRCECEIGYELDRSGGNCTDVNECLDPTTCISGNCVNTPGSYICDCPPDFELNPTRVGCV
B6: latent transforming growth factor beta binding protein-4, long isoform (natural protein)
chain: ASPSPSPSQVVEVPGVPSRPASVAVCRCCPGQTSRRSRCIRAFCRVRSCQPKKCAGPQRCLNPVPAVPSPSPSVRKRQVSLNWQPLTLQEARALLKRRRPRGPGGRGLLRRRPPQRAPAGKAPVLCPLICHNGGVCVKPDRCLCPPDFAGKFCQLHSSGARPPAPAVPGLTRSVYTMPLANHRDDEHGVASMVSVHVEHPQEASVVVHQVERVSGPWEEADAEAVARAEAAARAEAAAPYTVLAQSAPREDGYSDASGFGYCFRELRGGECASPLPGLRTQEVCCRGAGLAWGVHDCQLCSERLGNSERVSAPDGPCPTGFERVNGSCEDVDECATGGRCQHGECANTRGGYTCVCPDGFLLDSSRSSCISQHVISEAKGPCFRVLRDGGCSLPILRNITKQICCCSRVGKAWGRGCQLCPPFGSEGFREICPAGPGYHYSASDLRYNTRPLGQEPPRVSLSQPRTLPATSRPSAGFLPTHRLEPRPEPRPDPRPGPELPLPSIPAWTGPEIPESGPSSGMCQRNPQVCGPGRCISRPSGYTCACDSGFRLSPQGTRCIDVDECRRVPPPCAPGRCENSPGSFRCVCGPGFRAGPRAAECLDVDECHRVPPPCDLGRCENTPGSFLCVCPAGYQAAPHGASCQDVDECTQSPGLCGRGACKNLPGSFRCVCPAGFRGSACEEDVDECAQEPPPCGPGRCDNTAGSFHCACPAGFRSRGPGAPCQDVDECARSPPPCTYGRCENTEGSFQCVCPMGFQPNTAGSECEDVDECENHLACPGQECVNSPGSFQCRTCPSGHHLHRGRCTDVDECSSGAPPCGPHGHCTNTEGSFRCSCAPGYRAPSGRPGPCADVNECLEGDFCFPHGECLNTDGSFACTCAPGYRPGPRGASCLDVDECSEEDLCQSGICTNTDGSFECICPPGHRAGPDLASCLDVDECRERGPALCGSQRCENSPGSYRCVRDCDPGYHAGPEGTCDDVDECQEYGPEICGAQRCENTPGSYRCTPACDPGYQPTPGGGCQDVDECRNRSFCGAHAVCQNLPGSFQCLCDQGYEGARDGRHCVDVNECETLQGVCGAALCENVEGSFLCVCPNSPEEFDPMTGRCVPPRTSAGTFPGSQPQAPASPVLPARPPPPPLPRRPSTPRQGPVGSGRRECYFDTAAPDACDNILARNVTWQECCCTVGEGWGSGCRIQQCPGTETAEYQSLCPHGRGYLAPSGDLSLRRDVDECQLFRDQVCKSGVCVNTAPGYSCYCSNGYYYHTQRLECIDNDECADEEPACEGGRCVNTVGSYHCTCEPPLVLDGSQRRCVSNESQSLDDNLGVCWQEVGADLVCSHPRLDRQATYTECCCLYGEAWGMDCALCPAQDSDDFEALCNVLRPPAYSPPRPGGFGLPYEYGPDLGPPYQGLPYGPELYPPPALPYDPYPPPPGPFARREAPYGAPRFDMPDFEDDGGPYGESEAPAPPGPGTRWPYRSRDTRRSFPEPEEPPEGGSYAGSLAEPYEELEAEECGILDGCTNGRCVRVPEGFTCRCFDGYRLDMTRMACVDINECDEAEAASPLCVNARCLNTDGSFRCICRPGFAPTHQPHHCAPARPRA
B7: latent transforming growth factor beta binding protein-4, short isoform (natural protein)
chain: RLGERLRVRFTPVVCGLRCVHGPTGSRCTPTCAPRNATSVDSGAPGGAAPGGPGFRAFLCPLICHNGGVCVKPDRCLCPPDFAGKFCQLHSSGARPPAPAVPGLTRSVYTMPLANHRDDEHGVASMVSVHVEHPQEASVVVHQVERVSGPWEEADAEAVARAEAAARAEAAAPYTVLAQSAPREDGYSDASGFGYCFRELRGGECASPLPGLRTQEVCCRGAGLAWGVHDCQLCSERLGNSERVSAPDGPCPTGFERVNGSCEDVDECATGGRCQHGECANTRGGYTCVCPDGFLLDSSRSSCISQHVISEAKGPCFRVLRDGGCSLPILRNITKQICCCSRVGKAWGRGCQLCPPFGSEGFREICPAGPGYHYSASDLRYNTRPLGQEPPRVSLSQPRTLPATSRPSAGFLPTHRLEPRPEPRPDPRPGPELPLPSIPAWTGPEIPESGPSSGMCQRNPQVCGPGRCISRPSGYTCACDSGFRLSPQGTRCIDVDECRRVPPPCAPGRCENSPGSFRCVCGPGFRAGPRAAECLDVDECHRVPPPCDLGRCENTPGSFLCVCPAGYQAAPHGASCQDVDECTQSPGLCGRGACKNLPGSFRCVCPAGFRGSACEEDVDECAQEPPPCGPGRCDNTAGSFHCACPAGFRSRGPGAPCQDVDECARSPPPCTYGRCENTEGSFQCVCPMGFQPNTAGSECEDVDECENHLACPGQECVNSPGSFQCRTCPSGHHLHRGRCTDVDECSSGAPPCGPHGHCTNTEGSFRCSCAPGYRAPSGRPGPCADVNECLEGDFCFPHGECLNTDGSFACTCAPGYRPGPRGASCLDVDECSEEDLCQSGICTNTDGSFECICPPGHRAGPDLASCLDVDECRERGPALCGSQRCENSPGSYRCVRDCDPGYHAGPEGTCDDVDECQEYGPEICGAQRCENTPGSYRCTPACDPGYQPTPGGGCQDVDECRNRSFCGAHAVCQNLPGSFQCLCDQGYEGARDGRHCVDVNECETLQGVCGAALCENVEGSFLCVCPNSPEEFDPMTGRCVPPRTSAGTFPGSQPQAPASPVLPARPPPPPLPRRPSTPRQGPVGSGRRECYFDTAAPDACDNILARNVTWQECCCTVGEGWGSGCRIQQCPGTETAEYQSLCPHGRGYLAPSGDLSLRRDVDECQLFRDQVCKSGVCVNTAPGYSCYCSNGYYYHTQRLECIDNDECADEEPACEGGRCVNTVGSYHCTCEPPLVLDGSQRRCVSNESQSLDDNLGVCWQEVGADLVCSHPRLDRQATYTECCCLYGEAWGMDCALCPAQDSDDFEALCNVLRPPAYSPPRPGGFGLPYEYGPDLGPPYQGLPYGPELYPPPALPYDPYPPPPGPFARREAPYGAPRFDMPDFEDDGGPYGESEAPAPPGPGTRWPYRSRDTRRSFPEPEEPPEGGSYAGSLAEPYEELEAEECGILDGCTNGRCVRVPEGFTCRCFDGYRLDMTRMACVDINECDEAEAASPLCVNARCLNTDGSFRCICRPGFAPTHQPHHCAPARPRA
B8: recombinant human tropoelastin (natural protein)
chain: GGVPGAIPGGVPGGVFYPGAGLGALGGGALGPGGKPLKPVPGGLAGAGLGAGLGAFPAVTFPGALVPGGVADAAAAYKAAKAGAGLGGVPGVGGLGVSAGAVVPQPGAGVKPGKVPGVGLPGVYPGGVLPGARFPGVGVLPGVPTGAGVKPKAPGVGGAFAGIPGVGPFGGPQPGVPLGYPIKAPKLPGGYGLPYTTGKLPYGYGPGGVAGAAGKAGYPTGTGVGPQAAAAAAAKAAAKFGAGAAGVLPGVGGAGVPGVPGAIPGIGGIAGVGTPAAAAAAAAAAKAAKYGAAAGLVPGGPGFGPGVVGVPGAGVPGVGVPGAGIPVVPGAGIPGAAVPGVVSPEAAAKAAAKAAKYGARPGVGVGGIPTYGVGAGGFPGFGVGVGGIPGVAGVPGVGGVPGVGGVPGVGISPEAQAAAAAKAAKYGAAGAGVLGGLVPGAPGAVPGVPGTGGVPGVGTPAAAAAKAAAKAAQFGLVPGVGVAPGVGVAPGVGVAPGVGLAPGVGVAPGVGVAPGVGVAPGIGPGGVAAAAKSAAKVAAKAQLRAAAGLGAGIPGLGVGVGVPGLGVGAGVPGLGVGAGVPGFGAGADEGVRRSLSPELREGDPSSSQHLPSTPSSPRVPGALAAAKAAKYGAAVPGVLGGLGALGGVGIPGGVVGAGPAAAAAAAKAAAKAAQFGLVGAAGLGGLGVGGLGVPGVGGLGGIPPAAAAKAAKYGAAGLGGVLGGAGQFPLGGVAARPGFGLSPIFPGGACLGKACGRKRK

Tests used:
MFAP4_(C34S) = MFAP4_(C34S) (human, UniProt P55083 22-255, C34S); test: SPR; +Ca2+
[1] = target: T1, Microfibril-associated glycoprotein 4; test: SPR; -Ca2+
[2] = target: T1, Microfibril-associated glycoprotein 4; test: SPR; Ca2+

Row | Binder | Kd (MFAP4_(C34S)) | Kd [1] | Kd [2]
1 | B1 | 90 nM | – | –
2 | B2 | – | 3400 nM | –
3 | B3 | – | – | 19 nM
4 | B4 | 1 nM | – | –
5 | B5 | 1.5 nM | – | –
6 | B6 | 15 nM | 20 nM | –
7 | B7 | 19 nM | 22 nM | –
8 | B8 | 38 nM | – | –
